Laboratory results reported in publication PMC10213376 (Redox Biology, 2023).

Target: the molecule itself
Assay: crystal structure

B1: Human catalase (CAT) (enzyme)
chain: MADSRDPASDQMQHWKEQRAAQKADVLTTGAGNPVGDKLNVITVGPRGPLLVQDVVFTDEMAHFDRERIPERVVHAKGAGAFGYFEVTHDITKYSKAKVFEHIGKKTPIAVRFSTVAGESGSADTVRDPRGFAVKFYTEDGNWDLVGNNTPIFFIRDPILFPSFIHSQKRNPQTHLKDPDMVWDFWSLRPESLHQVSFLFSDRGIPDGHRHMNGYGSHTFKLVNANGEAVYCKFHYKTDQGIKNLSVEDAARLSQEDPDYGIRDLFNAIATGKYPSWTFYIQVMTFNQAETFPFNPFDLTKVWPHKDYPLIPVGKLVLNRNPVNYFAEVEQIAFDPSNMPPGIEASPDKMLQGRLFAYPDTHRHRLGPNYLHIPVNCPYRARVANYQRDGPMCMQDNQGGAPNYYPNSFGAPEQQPSALEHSIQYSGEVRRFNTANDDNVTQVRAFYVNVLNEEQRKRLCENIAGHLKDAQIFIQKKAVKNFTEVHPDYGSHIQALLDKYNAEKPKNAIHTFVQSGSHLAAREKANL
stoichiometry N: 4
